Assay results published in patent publication US20230265152A1, “GLP-1R AGONIST / FGF21 FUSION PROTEINS” (SANOFI, priority 2020, published 2023).
Marks after values point to notes of the source that are not given here.

Experiments:
[1] = Thermal shift assay (DSF, Sypro Orange); format: physicochemical; conditions: Data generated via DSF
Excerpt: In addition, for some proteins, a thermal shift assay was applied to analyze thermostability in imitation of differential scanning fluorimetry (DSF or ThermoFluor™) assays (Ahmad S. et al. (2012) Protein Science 21: 433-446; Pantoliano et al. (2001) J. Biomol. Screen 6: 429-440; Niesen et al. (2007) Nat. Protoc. 2: 2212-21). This assay is based on the observation that hydrophobic fluorescent dyes, such as Sypro™ Orange (Life Technologies, cat. No. S6651), increase their fluorescence when they bind to hydrophobic patches on a protein.
Proteins were tested by mixing a solution of each protein in PBS (Gibco) with a 160x solution of Sypro™ Orange (diluted in water from a 5000X DMSO stock as provided by the supplier). The sample volume was adjusted to 20 µL with PBS. Typical conditions contained 0.8 mg/mL protein and 8x Sypro™ Orange in the final mixture, but protein concentrations could be varied between 0.4 mg/mL and 1.2 mg/mL. Samples were dispensed in 96-well PCR plates (BioRad Semi-Skirt 96 white) and shortly centrifuged to remove air bubbles. […] For excitation and quantification of fluorescence, filters for wavelengths of 485 nm and 575 nm were chosen. […] In curves of fluorescence intensity against temperature, the inflection point was chosen as the measure for the melting temperature (Tm).

[2] = Pharmacokinetics after single subcutaneous administration in mouse; format: in vivo, female C57Bl/6 mice; conditions: 0.3 mg/kg s.c.; assay FGF21 intact
Protocol: Plasma concentrations and pharmacokinetic parameters of GLP-1RA/FGF21 Fc fusion proteins were determined after single subcutaneous administration of 0.3 mg/kg in solution to female C57Bl/6 mice or male Cynomolgus monkeys using three different methods. Blood samples were obtained at time points from 30 minutes to 168 hours after dosing.
Plasma samples were analyzed for the intact FGF21 part of the fusion proteins with an ELISA kit (F1231-K01, Eagle Biosciences, USA). The assay utilized the two-site sandwich technique with two selected antibodies that bound to different epitopes of human intact FGF21. […] For the detection of the immunocomplex, the well was then incubated with a substrate solution in a timed reaction and then measured in a spectrophotometric microplate reader. […]
The concentration of the full-length GLP-1RA/FGF21 Fc fusion proteins in plasma were determined utilizing an ELISA method. […] Following washing 3 times with 300 µL PBS-T 150 µL read buffer was added to the wells.
Plasma samples were analyzed for the intact GLP-1 part of the fusion proteins with a GLP-1 ELISA method. […] Following washing 3 times with 300 µL PBS-T, 150 µL read buffer was added to the wells.
The pharmacokinetic parameters were calculated by the program WinNonlin 6.4 using a non-compartmental model and linear trapezoidal interpolation calculation. […]

B1: 252 (protein)
chain: GHPIPDSSPLLQFGGQVRQRYLYTDDAQQTEAHLEIREDGTVGGAADQSPESLLQLKALKPGVIQILGVKTSRFLCQRPDGALYGSLHFDPEACSFRELLLEDGYNVYQSEAHGLPLHLPGNKSPHRDPAPRGPARFLPLPGLPPAPPEPPGILAPQPPDVGSSDPLSMVGPSQGRSPSYAS
modifications: G-FGF21
Question: Which Tm [1] does the source give for B1 here?
Answer: 43.1 * °C

Question: What about the t½ mouse [2] of the same molecule?
Answer: 42 min
